Fewer inactive variants are shown than the library holds.
B1: TPR 5TU (parent)
chain: GGAUCUUCUCGAUCUAACAAAAAAGACAAAUCUGCCACAAAGCUUGAGAGCAUCUUCGGAUGCAGAGGCGGCAGCCUUCGGUGGCGCGAUAGCGCCAACGUUCUCAACUAUGACACGCAAAACGCGUGCUCCGUUGAAUGGAGUUUAUCAUG

Variants of: B1
Assay: polymerase ribozyme fitness, log enrichment relative to wild type (log ratio); higher = more active; in vitro selection for triplet polymerase activity
Method in brief: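 Streptavidin-bead capture of gel-excised extended constructs, followed by RT-PCR, closed a single triplicate in vitro selection round. That round began by annealing PCR-built, transcribed mutant libraries of each subunit of a heterodimeric triplet polymerase ribozyme with a biotinylated primer, the partner subunit and triplets, then incubating them frozen at −7 °C. After Illumina sequencing of inputs and outputs, genotypes needed ≥10 input reads and ≥1 read per output. Fitness is the base-2 logarithm of genotype enrichment over wild-type enrichment, using inverse-variance-weighted replicate averages.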

Variant | polymerase ribozyme fitness (log ratio)
C93A U101G U139C G141C | -3.88
C93U A115U A120G | -2.4
G92C C103A | -3.4
A91U G94A G128U | ≤ -4.2
G94A C105G C116A G141C | ≤ -4.2
C93U U104G | -1.8
C93U U102G G117U U135A | ≤ -4.2
G94A U148A | -3.08
G94A U148C | -2.75
A91G G126A G141A | -3.67
G94C A97U | -2.45
C93G C108U C116G | ≤ -4.2
C93A U101G | -3.29
A91U G128A U139C A150U | ≤ -4.2
A91U U109G G141U | ≤ -4.2
A91G C118U A121U A122U G124A | -3.56
A91G U127A | ≤ -4.2
A91U A113C | ≤ -4.2
A91G A113C U127C U146G | ≤ -4.2
C93U A97C | -0.557
C93U A97U | -2.14

Variant | polymerase ribozyme fitness (log ratio)
A91U C108U A113U C118U C149G | ≤ -4.2
C93A A150G | -3.51
C93A U130A | ≤ -4.2
A91G G112C | -3.76
A91C U109G G140U | ≤ -4.2
G92C U134G | -1.68
G92C U139A | -4.2
G94C A97U A150G | -1.52
C93U C96A | -1.65
C93G A150G | -4.14
C93U C131A | -2.97
C93U A110G | -3.25
C93U A110U | -4.1
A91U A115U C118A C131G A138G | ≤ -4.2
G94A U151A | ≤ -4.2
C93A A107U G126C A150G | ≤ -4.2
G92U C108U C125G G140C | ≤ -4.2
C93A A142U C149A | ≤ -4.2
G92C U146A | -0.323
G94A C105U C116U C125G | -0.0334
G92U C118A | -1.05

Variant | polymerase ribozyme fitness (log ratio)
G94A G117U | -0.469
G94A C96G | -2.1
G94A C114U | -1.93
G92U U104G | -0.858
C93A G94A C123U C149U | ≤ -4.2
G92C G124U G152U | -3.69
C93U C114U G141A | ≤ -4.2
G92U A107U | -3.2
C93A C96G A97C U148A | ≤ -4.2
G92U U101A A119U G143U | -3.62
G92U C99U U144G | 0.0398
C93U G94U A107C | ≤ -4.2
C93U A137C | -4.07
C93A G124C U127C G133C U135A U148G | ≤ -4.2
C93U C103A C105U A120G U134C | -3.94
G92A U104G A110G | -3.8
G92A U127A A150U | -4.1
G94C C129G | -3.39
C93A G94A | -2.93
C93A C103G | -3.88
A91G C95G | -3.67

Variant | polymerase ribozyme fitness (log ratio)
G92A A120G A121C U148C | -4.16
G92A C103U | -2.02
A91U G141A U144G | ≤ -4.2
G92A U101G C149U | -3.56
C93G A97U | -3.39
C93A U146C | -2.18
C93A U146G | -3.27
G92A C95A C125G | -3.82
C93G A97U A121G | ≤ -4.2
A91G G140U | -4.19
C93U C118U | -1.84
C93U A97C G140A | ≤ -4.2
G92A C149U | -3.4
G92U A113C | -2.78
G92A C108U | ≤ -4.2
C93U U148A | -3.85
G94A G141A | 0.172
G94A G141C | -2.23
G94A G141U | 0.898
C93U A150G | -1.93
